In paper PMC12092003:

Legend:
[1] = target: Cd28 with EGFP-tag (labeled protein of the MST assay) (zebrafish); test: MST; Monolith NT.115; EGFP-tagged Cd28 or Ctla-4 as labeled protein, unlabeled Cd80/86 titrated (initial 3.2 µM, 16 doubling dilutions), 10 min at room temperature, measured at 25 °C, 40% LED, medium MST power
[2] = target: Ctla-4 with EGFP-tag (labeled protein of the MST assay) (zebrafish); test: as above
[3] = target: HA-Ctla-4 (zebrafish cytotoxic T lymphocyte antigen-4, from pCDNA3.1-HA-Ctla-4) (zebrafish); test: Western blot under non-reducing and reducing conditions; lysate of HEK293T cells transfected with pCDNA3.1-HA-Ctla-4 for 48 hr, mixed with loading buffer without or with β-ME; empty plasmid as control

Kd [1] | Kd [2] | Substance | stoichiometry N [3]
2.64 µM | 0.5 µM | recombinant soluble Cd80/86 (Cd80/86 extracellular domain) (domain or fragment) | 
 |  | HA-Ctla-4 (zebrafish cytotoxic T lymphocyte antigen-4, from pCDNA3.1-HA-Ctla-4) (receptor) | 2
